# Assay results: the DeepSol protein solubility set
# Assay: soluble on expression in E. coli; label from the status in PepcDB or PDB records
row,Sequence,soluble on expression in E. coli
1,MEIFPAIDLKEGRCVRLYQGEFSKETVMNEDPVAQAIIFEKFGAKRLHIVDLDGAVAGESLNLSVIERICKAVRIPVQVGGGIRSLVAVEKLFSVGVDKVILGTAALYDKTFLEEAVLLYKEKIIVGIDAKNGFVATRGWLDVSEISYIDLAKQMEKIGVQTIVFTDISKDGTLAGPNIEQLELLQKSVAIRLIASGGVASIQDVKKLNDMNIYGVIIGKALYEKTIDLEEVVEVTKLC,not soluble
2,MAPSGGQEAQICDSETFGDSDFVVVANRLPVDLERLPDGSTTWKRSPGGLVTALEPVLRRRRGAWVGWPGVNDDGAEPDLHVLDGPIIQDELELHPVRLSTTDIAQYYEGFSNATLWPLYHDVIVKPLYHREWWDRYVDVNQRFAEAASRAAAHGATVWVQDYQLQLVPKMLRMLRPDLTIGFFLHIPFPPVELFMQMPWRTEIIQGLLGADLVGFHLPGGAQNFLILSRRLVGTDTSRGTVGVRSRFGAAVLGSRTIRVGAFPISVDSGALDHAARDRNIRRRAREIRTELGNPRKILLGVDRLDYTKGIDVRLKAFSELLAEGRVKRDDTVVVQLATPSRERVESYQTLRNDIERQVGHINGEYGEVGHPVVHYLHRPAPRDELIAFFVASDVMLVTPLRDGMNLVAKEYVACRSDLGGALVLSEFTGAAAELRHAYLVNPHDLEGVKDGIEEALNQTEEAGRRRMRSLRRQVLAHDVDRWAQSFLDALAGAHPRGQG,not soluble
3,QAAVTDYYKTLHLFFISPEKGKEFERSTSIRRRVKAMPHGVNRLFSSLYYYYTLIQERATPRLQRLLDQLEADYPQNTIPETLRQHLRKDSRR,not soluble
4,MLYQSETLQLHWLENGIAELVFDAPGSVNKLDTKTVANLGEALNVLEKQSELKGLLLRSAKTALIVGADITEFLSLFNAPPEKLHQWLVFANTIFNRLEDLPVPTISAINGYALGGGCECILATDFRIASPEARIGLPETKLGIMPGFGGSVRLPRLLGADSALEIIATGKDVTANDALKIGLVDAVVDPEKLVGSALTMLKQAIDGKLDWQAARRPKLEPLKLNPTEAAMCFTIAKGRVMQVAGKHYPAPLTAVKTIEAAAKFGRTEALNLETNSFVPLAGSNEARALVGIFLNDQYVKAQAKKLSKGVAAPKLAAVLGAGIMGGGIAYQSALKSVPVIMKDINENSLDLGMNEAAKLLNKQLERGKVDGLKMASILATIRPTLDYAGIERAQVIVEAVVENPKVKAAVLAEVEALIGEDTVLASNTSTIPIDQLAKSLKRPENFCGMHFFNPVHRMPLVEIIRGAKTSDKTLAAVVAYATQMGKTPIVVNDCPGFFVNRVLFPYLAGFGMLVRDGGDFHQIDKVMEKQFGWPMGPAYLLDVVGIDTAHHAQAVMAAGFPERMNKDYRDAVDVMFDNQRFGQKNGQGFYRYTQDAKGKPRKENDEQVDKLLAEISQPLQEFSDEDIIARTMIPMINEVVRCLEEGIIASAAEGDMALVYGLGFPPFHGGVFRYLDTLGSANYVEMAQRYAHLGALYHVPAGLRAKAEHNESYYPVAAALLDVSTNQPA,not soluble
5,MAHHHHHHMSTNISPNIKKGGVTAADLMQLQGAALRLRSQCTQREADNRRLTQKLREYEEQLFFLRANELILRKQVSVWSSYHRLFAQPLYEARLAVERYKHEAHQSLVHEMQVDRQRRSSLANAANEKRERERAGLQARLRQLQELQDEKRKKNEELELRLRRASEESLRAQKQASKLKDELAYCMDRLEESERERERVKRHLSEHEAALLKARHNVAGMGHFEEEIRSRDTVIAQLQRTVRELNTIMAQQSASRLEEANGENTPPQHEAEEKKLAASPQRLLNDSCDSEWVLKQSIGWFRSKMEREMKPSTPRRQMFEPCSSSAHPAPSLSSFSWMEGRCDSGDVDLQEFLSRELQAPLL,not soluble
6,MSLTTDWTTQVAAAAASVTAAEVDTARRALDYLCLAQLYLRDNVTLSTPLQPGHVKPAPAGHWGVCPPVNAVLAALGPYRRMPGTDVRVVHGGGHAGPSALAHAWITGALDTGEDAFGHTEVDLARLCAQFPRTRFGGEITPLIPGHDHLGGQLGPALAIAHGMGLDAPDRLVVAVIGDGECETGATAAAWLGARALIGTGTHGRVLPVILANGLRMGSASLLAALDPCDLARHLGGLGYEVITAGPSTDEITAAVARALTGLRPLQYGPSTVVVVTVDKGHGVPKTVAGQQIAQTPRVHKVPLRNPRDDNAEFVALERWLSGYRPQELFTGGAPTATVRRALAPAATGRVELHAPRGCIAAASAVADRVAGADFGAAITATLRELNTVYGLRVFSPDELASNRIELGAPDSGWTIEVLNEELCHAWAQGYQATGRRGVVVGYEAFAPITASLLAQQLLAHRLAAAAGRPPGPSLVYLLTSLGWHNTITHANPGLIDIAIGTADPSVHIYLPADATRTAAALTFAVRKLGRASLVVASKHPMPAHPHTTIDAELRDGYAVWPHIADDLDPEMVLVSIGDIAARELTRAATTITATRTATRLRYLHIHDLTSLGAPGRRDAAISAADFERLFPPGAAVLIATTCHPAAVHALLGERGAPRTVVVRGWANPPLPMSHDELLDHTGIAATALHEAALALLDSTTCDPLIRQGAREGHHHHHH,soluble
7,MFPWIVIHEGNLFDTQKPLKCAILSEFQSMVSESDGPSSSKTGGISSSMTHPLDMLGDTYGIFDLMMDTSSIKPILTEILCSSDHWRRNGRHPVVLSTFPFSAIAREINASCSEALFYEIANVERMIVGDSRHAMNLGDQLAFEIFSTVMMISDLDIFLLGASNLYLSDRRGFNRDLTDVFWSSFISSLLMRNDRNRLFILIKGGLKYVSDLLSEYIVARISMELSDQTIRIRLIYL,soluble
8,MGSDKIHHHHHHVDLSVMNRKRSESFNEVAEIYDAARPSYPSQLIEDVIEMANLTDSASILDIGTGTGKGTVPFAEKGYAIYCLEPGERLIAIASQNMRLYPKVIFETVTLEDWNLRPSAFDLAISAQAFHWVNREKGYPKVAQALKEKGYIAFFWNFSILPDTSIFQALKETFQKYVPTISNAKPSSVESLIKKRENWILNSFYFKNLVVKKYPWSINYDAEGYLGLLKTQTAYQKFTGTEKQDFSDAIIQILNAHGGYVTKPYLSVLFFAQKI,not soluble
9,MGEKEKEFAVIGLGRFGGSICRELAQLGMEVMAIDSDEDKINEFANIASHAVIADSTDEMVLKSLGIRNFDHVVVAIGDNLNSSILTTLILKELGVKNITVKAQNDYHEKVLSKIGADHIVHPERDMGKRIANNIASSNVLDYLELSDEHSIVEIIANKKIDGHSLIELDIRAKFGLNIVAIKRGKEVIVSPRATENIQAGDILIVIGHDDEVDRFKHFLR,not soluble
10,SLVVNRSWMRCWSITALRADHSVKICLIDETGAGDGALSVLAARWGLEHDEDNLMALVLTPEHLELRKRDEPKLGGIFVDFVGGAMAHRRKFGGGRGEAVAKAVGIKGDYLPDVVDATAGLGRDAFVLASVGCRVRMLERNPVVAALLDDGLARGYADAEIGGWLQERLQLIHASSLTALTDITPRPQVVYLDPMFPHKQKSALVKKEMRVFQSLVGPDLDADGLLEPARLLATKRVVVKRPDYAPPLANVATPNAVVTKGHRFDIYAGTPV,soluble
11,MSLASVDPYEHLNAWVSAIETSGVLVLATRGGKVAIDEMRGMCLYFDELPVIVLNGSDHPRPRLFSLLHEFVHVVLHTEGLCDVIADAHPSTQDRSLEARCNAIAAAVLMPADVVRARPEVIVRSETPSSWDYESLRPVAAHFGVSAEAFLRRLSTLGIVPVEVYRQRRAEFIAAHEDEAERARSAGGGNWYRNTVRDLGKGYVRAVTDAHRRRVIDSNTAAIYLDAKVSQIPKLAESAELRSVEGHHHHHH,not soluble
12,MSLGRGMQKQRFCLDTSAFTEPSVRKALGVKTVTELTDKVMDLIAEARIKLNISCHIPYPTVYNELMGFLENENCPRDVIVKVDTWLVKKTPNRYEIKIPSEIFYEYVKDLRERINKGMRIGEEHIIKATDMVYELSKKHPEMGKNEIINKVLSKTINTFRNKYRSALRVGTLDSAPDLDVLLLAKELDAAVVASDGGIEKWAQRLGLRFVDASDFPFMLEEYLKHNDRHLRIKYEGHHHHHH,soluble
13,MLVVLAISLAVTAVCAQYGSGPANNPPASSYSSNVYYPPPVYGSVYWDYDSGSREHRHKQCPRLRAYVGEFPGIPEEAFYPPIIRYVKYNRKVTALVVCDRDEKNLNFLFARHNKTRDVRSASVVAIGSTAGVTLVCNRDDRRYEGFVIDMNATTNGFSKKIEITQLTCLGLDKTIIGLPVEHGVQQLAQKIQEILEDDFFVPVIPSRRKRQAGGATANSAESTTEAADTESTTEAAATETPAAESTTTEASATDAAATEASATDAAATEGAVTKAAAGVTEESATEVITVATTPASPDAALNNAINELGKILGQVF,not soluble
14,TGKFKWDLGGNISFVKNKLLSLIEGSEMYVVPSSGSNLLGGSMHALINGEPISTFYMLKMEGIYQRDDEVPAKLYAKGVRAGDVRYFDYNEDGDITDADRVNVGKAIPDFYGGITSNFSYKGFDLSLFGQFSVGGKVMAAWRGVNGSEGTDHLGLALSNVKVGDRGESVEQFFNISKEVANGYWRGEGTSNSIPRPVRIGVHTGYDYDYNVQTSTRYLEDASYFKLKTVTLGYTLPESITKKIHVNSLRFYVSADNLLAFTKYSGYDPETSFSGSPGDSNYGVDFGLQPVLRTFIFGLNLNF,not soluble
15,MGTKREKDSLAFLLNSGARLLNNAFERRISEAGLGLTPGEARALLTVAVVDGSKQSDIAARLGIEPMTICAYLDKLQSLDLIERQQDPQDRRSKRIVLTKNSTDMLEAVRQEIDELVRHATRGLNEDEVALFRSFLQTLRDNLQPEQPGQSC,soluble
16,MRRHAIILAAGKGTRMKSKKYKVLHEVAGKPMVEHVLESVKGSGVDQVVTIVGHGAESVKGHLGERSLYSFQEEQLGTAHAVQMAKSHLEDKEGTTIVVCGDTPLITKETLETLIAHHEDANAQATVLSASIQQPYGYGRIVRNASGRLERIVEEKDATQAEKDINEISSGIFAFNNKTLFEKLTQVKNDNAQGEYYLPDVLSLILNDGGIVEVYRTNDVEEIMGVNDRVMLSQAEKAMQRRTNHYHMLNGVTIIDPDSTYIGPDVTIGSDTVIEPGVRINGRTEIGEDVVIGQYSEINNSTIENGACIQQSVVNDASVGANTKVGPFAQLRPGAQLGADVKVGNFVEIKKADLKDGAKVSHLSYIGDAVIGERTNIGCGTITVNYDGENKFKTIVGKDSFVGCNVNLVAPVTIGDDVLVAAGSTITDDVPNDSLAVARARQTTKEGYRK,not soluble
17,NTRGMALFADGGLIATKPYSASGSYINKMSDYCASCAYQVKLKSGEKACPLNSLYWRFMLKHRDRLANNPRIGMLYKTWDKMTSDSQQAILSTADAYLSQIESL,not soluble
18,MSTCTLRFKNDWLKIFTCPVPSSDFLSFVGVATIDAPQHAVLSLLYDIESATEWVWKTREMRVLQELADDNEGRVVYQVVSAPWPVSDREIISRSTAYKDPETGEVFIKIESLPDFIPETSNCVRVRKLEGAWNILPLSENSCRVVFRLHIEPAGEIPSWLANIAVIDTPYHTLNNMRDMVKREKYKNPLEHHHHHH,not soluble
19,MGSDKIHHHHHHMIYKADNNVRQKLVEMFDDFDSTIVLSYLQGHMGSAWVDNLENPTVAQITVGIFVFYAGNPNAEEAEELLYNLPDFTLAIVDSDEWKKRIETVHKGSIEKFQRFRFNKNPGDLDKEYIRDILSTLPQNYEMKKIDKDIAKASSFHALSEDFTSQFDSIDDFIDRGVGYAILNKGQVVSAATSFSIFDDGIEIEIASHPEHRRKGLAKIVASALILDCLDREKYPSWDGANVESVELAKKLGYTFKEPYDTYFIQIKK,not soluble
